# According to patent US20250186614A1, “COMPACT DRUG RESPONSIVE DOMAINS FOR REGULATION OF FUNCTION/ABUNDANCE AND DELIVERY OF POLYPEPTIDE PAYLOADS” (OBSIDIAN THERAPEUTICS, INC., priority 2022, published 2025):
# Like-named read-outs stand apart in the source and are kept apart here.
# Experiments:
# Assay type in all cases: cell-based
# Jurkat cells [1] = assay: Tacrolimus dose response of FKBP13-AcGFP-mCherry constructs stably transduced into Jurkat cells, GFP MFI by flow cytometry; parameters: Basal: unit not given here; settings: for EC90 / Tacrolimus FC: Table 14; for Fold Change: Jurkat cells stably transduced; for Tacrolimus FC: fold change
# In short: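 Jurkat E6-1 cells lentivirally transduced with FKBP13-AcGFP-mCherry constructs to 10-25% mCherry+ (day 5) were dosed with tacrolimus. GFP geometric MFI in mCherry+ cells was measured by flow cytometry and fitted to dose-response curves.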
# Jurkat cells [2] = assay: Sirolimus (rapamycin) dose response of FKBP13 constructs stably transduced into Jurkat cells, flow cytometry; settings: for Fold Change: rapamycin (sirolimus), Jurkat cells stably transduced, Table 8; for EC90 / Rapamycin FC: rapamycin, Table 14; for Rapamycin FC: fold change; for difference between rapamycin and tacrolimus: ratio of EC50 and fold change, Table 9; for EC50 (tacrolimus)/ EC50 (rapamycin): ratio of Table 7 and Table 8 EC50 values; for EC50 (tacrolimus)/ EC50 (rapamycin) / Fold change (tacrolimus)/ Fold change (rapamycin): Jurkat cells; for Fold change (tacrolimus)/ Fold change (rapamycin): ratio of Table 7 and Table 8 fold changes
# Method: Normalized EC50 values were calculated from the mCherry normalized GFP MFI values, which accounted for any differences in mCherry intensity between samples.
# [3] = Example 4: dose response of FKBP constructs 160-255, Ec50, Ec90 and fold change (raw and normalized to mCherry)
# Method: Additional experiments were performed for constructs FKBP-160-292.
# [4] = read-out: Tacrolimus EC90 (Norm), tacrolimus, normalized
# [5] = read-out: Tacrolimus EC90, tacrolimus
# [6] = normalized, read-out: Rapamycin EC90 (Norm)
Molecule,EC90 (Jurkat cells [1]; [4]) [nM],EC90 (Jurkat cells [1]; [5]) [nM],"Fold Change (Jurkat cells [1]; tacrolimus, Table 7)",Tacrolimus FC (Jurkat cells [1]; tacrolimus),Fold Change (Jurkat cells [2]),EC90 (Jurkat cells [2]; read-out: Rapamycin EC90) [nM],Rapamycin FC (Jurkat cells [2]),EC90 (Jurkat cells [2]; [6]) [nM],difference between rapamycin and tacrolimus (Jurkat cells [2]),EC50 (tacrolimus)/ EC50 (rapamycin) (Jurkat cells [2]),Fold change (tacrolimus)/ Fold change (rapamycin) (Jurkat cells [2]),further results
"FKBP-153: FKBP13 DRD Q72R, S79W, Q84E, A117W, M54A; SEQ ID NO: 103 (protein, Description of sequence: FKBP13-AcGFP-mCherry Fusion; Construct Name: FKBP-153; FKBP13 DRD in Construct : FKBP13 (mutated to match FKBP12 active site Q72RS79W Q84E A117W) (DRD M54A)) HCPIKSRKGDVLHAHYTGKLEDGTEFDSSLPRNQPFVFWLGTGEVIKGWDQGLLGMCEGEKRKLVIPSELGYGERGWPPKIPGGATLVFEVELLKIER",383,341,30.07,39.7,4.8,1520,6.1,1540,largest difference between rapamycin and tacrolimus,0.20,6.26,
"FKBP-156: FKBP13 DRD Q72R, T82W, Q84W, A117W, M54A; SEQ ID NO: 106 (protein, Description of sequence: FKBP13-AcGFP-mCherry Fusion; Construct Name: FKBP-156; FKBP13 DRD in Construct : FKBP13 (mutated to match FKBP12 active site Q72R T82W Q84W A117W) (DRD M54A)) HCPIKSRKGDVLHAHYTGKLEDGTEFDSSLPRNQPFVFSLGWGWVIKGWDQGLLGMCEGEKRKLVIPSELGYGERGWPPKIPGGATLVFEVELLKIER",,,18.36,,8.77,,,,,0.56,2.09,
"FKBP-157: FKBP13 DRD Q72R, T82W, Q84E, A117W, M54A; SEQ ID NO: 107 (protein, Description of sequence: FKBP13-AcGFP-mCherry Fusion; Construct Name: FKBP-157; FKBP13 DRD in Construct : FKBP13 (mutated to match FKBP12 active site Q72R T82W Q84E A117W) (DRD M54A)) HCPIKSRKGDVLHAHYTGKLEDGTEFDSSLPRNQPFVFSLGWGRVIKGWDQGLLGMCEGEKRKLVIPSELGYGERGWPPKIPGGATLVFEVELLKIER",1320,1140,51.33,63.5,7.92,1010,11.2,1080,largest difference between rapamycin and tacrolimus,0.97,6.48,
"FKBP-117: FKBP13 DRD Q72R, Q84E, A117W, V85R; SEQ ID NO: 67 (protein, Description of sequence: FKBP13-AcGFP-mCherry Fusion; Construct Name: FKBP-117; FKBP13 DRD in Construct : FKBP13 (mutated to match FKBP12 active site Q72R Q84E A117W) (DRD V85R)) HCPIKSRKGDVLHMHYTGKLEDGTEFDSSLPRNQPFVFSLGTGERIKGWDQGLLGMCEGEKRKLVIPSELGYGERGWPPKIPGGATLVFEVELLKIER",27.2,25,18.6,21.2,6.9,170,7.6,171,,0.20,2.70,"Fold Change (Jurkat cells [1]; tacrolimus, Table 6): 15.75; FC (Jurkat cells [1]; tacrolimus, FIG. 35): 24.07; Peak (Jurkat cells [1]; tacrolimus, FIG. 35): 5193; FC (Jurkat cells [1]; tacrolimus, FIG. 36): 24.07; Peak (Jurkat cells [1]; tacrolimus, FIG. 36): 5193; FC (Jurkat cells [1]; tacrolimus, FIG. 37): 24.07; Peak (Jurkat cells [1]; tacrolimus, FIG. 37): 5193; FC (Jurkat cells [1]; tacrolimus, FIG. 38): 24.07; Peak (Jurkat cells [1]; tacrolimus, FIG. 38): 5193"
"FKBP-155: FKBP13 DRD Q72R, S79W, Q84R, A117W, M54A; SEQ ID NO: 105 (protein, Description of sequence: FKBP13-AcGFP-mCherry Fusion; Construct Name: FKBP-155; FKBP13 DRD in Construct : FKBP13 (mutated to match FKBP12 active site Q72R S79W Q84R A117W) (DRD M54A)) HCPIKSRKGDVLHAHYTGKLEDGTEFDSSLPRNQPFVFWLGTGRVIKGWDQGLLGMCEGEKRKLVIPSELGYGERGWPPKIPGGATLVFEVELLKIER",947,808,41.68,61.3,5.6,1140,7.5,1180,largest difference between rapamycin and tacrolimus,0.72,7.44,
"FKBP-158: FKBP13 DRD Q72R, Q84E, A117W, M54A G111E; SEQ ID NO: 108 (protein, Description of sequence: FKBP13-AcGFP-mCherry Fusion; Construct Name: FKBP-158; FKBP13 DRD in Construct : FKBP13 (mutated to match FKBP12 active site Q72R Q84E A117W) (DRD M54A G111E)) HCPIKSRKGDVLHAHYTGKLEDGTEFDSSLPRNQPFVFSLGTGEVIKGWDQGLLGMCEGEKRKLVIPSELEYGERGWPPKIPGGATLVFEVELLKIER",,,1.25,,0.84,,,,,,1.49,
"FKBP-159: FKBP13 DRD Q72R, Q84E, A117W, M54A G111Y; SEQ ID NO: 109 (protein, Description of sequence: FKBP13-AcGFP-mCherry Fusion; Construct Name: FKBP-159; FKBP13 DRD in Construct : FKBP13 (mutated to match FKBP12 active site Q72R Q84E A117W) (DRD M54A G111Y)) HCPIKSRKGDVLHAHYTGKLEDGTEFDSSLPRNQPFVFSLGTGEVIKGWDQGLLGMCEGEKRKLVIPSELYYGERGWPPKIPGGATLVFEVELLKIER",,,1.06,,0.81,,,,,1.22,1.31,
"FKBP-197: FKBP13 DRD-AcGFP construct of Table 10 (protein, Description of sequence: Construct Name: FKBP-197; Mutation(s): Q72R Q84E A117W V85R DRD E130R) HCPIKSRKGDVLHMHYTGKLEDGTEFDSSLPRNQPFVFSLGTGERIKGWDQGLLGMCEGEKRKLVIPSELGYGERGWPPKIPGGATLVFRVELLKIER",,,,,,,,,,,,"Basal (Jurkat cells [1]; FIG. 46, BR1 (Biorep 1)): 70.7; FC (Jurkat cells [1]; FIG. 46, BR1 (Biorep 1)): 101.12; At 10 uM (Jurkat cells [1]; FIG. 46, BR1 (Biorep 1)): 7149; Basal (Jurkat cells [1]; FIG. 46, BR2 (Biorep 2)): 55.2; FC (Jurkat cells [1]; FIG. 46, BR2 (Biorep 2)): 72.21; At 10 uM (Jurkat cells [1]; FIG. 46, BR2 (Biorep 2)): 3986; EC90 ([3]; FKBP constructs 160-255, not normalized, read-out: EC90): 1090 nM; FC (fold change) ([3]; fold change during initial analysis): 101.1; EC90 ([3]; normalized to mCherry, read-out: EC90 (Norm)): 1190 nM"
"FKBP-154: FKBP13 DRD Q72R, S79W, Q84W, A117W, M54A; SEQ ID NO: 104 (protein, Description of sequence: FKBP13-AcGFP-mCherry Fusion; Construct Name: FKBP-154; FKBP13 DRD in Construct : FKBP13 (mutated to match FKBP12 active site Q72R S79W Q84W A117W) (DRD M54A)) HCPIKSRKGDVLHAHYTGKLEDGTEFDSSLPRNQPFVFSLGTGEVIKGWDQGLLGMCEGEKRKLVIPSELGYGERGWPPKIPGGATLVFEVELLKIER",,,14,,3.9,,,,,0.35,3.59,
